The values below come from article doi:10.1101/2023.04.21.537812 (bioRxiv, 2023).

The data set deals with the molecule itself. The data set can be described thus: SEC. In general terms: SEC sorts molecules by how far they enter the pores of the column.

B1: uncleaved Ycf1p-3xFLAG (natural protein, S. cerevisiae, UniProt P39109 1-1515, looked up)
chain: MAGNLVSWACKLCRSPEGFGPISFYGDFTQCFIDGVILNLSAIFMITFGIRDLVNLCKKKHSGIKYRRNWIIVSRMALVLLEIAFVSLASLNISKEEAENFTIVSQYASTMLSLFVALALHWIEYDRSVVANTVLLFYWLFETFGNFAKLINILIRHTYEGIWYSGQTGFILTLFQVITCASILLLEALPKKPLMPHQHIHQTLTRRKPNPYDSANIFSRITFSWMSGLMKTGYEKYLVEADLYKLPRNFSSEELSQKLEKNWENELKQKSNPSLSWAICRTFGSKMLLAAFFKAIHDVLAFTQPQLLRILIKFVTDYNSERQDDHSSLQGFENNHPQKLPIVRGFLIAFAMFLVGFTQTSVLHQYFLNVFNTGMYIKSALTALIYQKSLVLSNEASGLSSTGDIVNLMSVDVQKLQDLTQWLNLIWSGPFQIIICLYSLYKLLGNSMWVGVIILVIMMPLNSFLMRIQKKLQKSQMKYKDERTRVISEILNNIKSLKLYAWEKPYREKLEEVRNNKELKNLTKLGCYMAVTSFQFNIVPFLVSCCTFAVFVYTEDRALTTDLVFPALTLFNLLSFPLMIIPMVLNSFIEASVSIGRLFTFFTNEELQPDSVQRLPKVKNIGDVAINIGDDATFLWQRKPEYKVALKNINFQAKKGNLTCIVGKVGSGKTALLSCMLGDLFRVKGFATVHGSVAYVSQVPWIMNGTVKENILFGHRYDAEFYEKTIKACALTIDLAILMDGDKTLVGEKGISLSGGQKARLSLARAVYARADTYLLDDPLAAVDEHVARHLIEHVLGPNGLLHTKTKVLATNKVSALSIADSIALLDNGEITQQGTYDEITKDADSPLWKLLNNYGKKNNGKSNEFGDSSESSVRESSIPVEGELEQLQKLNDLDFGNSDAISLRRASDATLGSIDFGDDENIAKREHREQGKVKWNIYLEYAKACNPKSVCVFILFIVISMFLSVMGNVWLKHWSEVNSRYGSNPNAARYLAIYFALGIGSALATLIQTIVLWVFCTIHASKYLHNLMTNSVLRAPMTFFETTPIGRILNRFSNDIYKVDALLGRTFSQFFVNAVKVTFTITVICATTWQFIFIIIPLSVFYIYYQQYYLRTSRELRRLDSITRSPIYSHFQETLGGLATVRGYSQQKRFSHINQCRIDNNMSAFYPSINANRWLAYRLELIGSIIILGAATLSVFRLKQGTLTAGMVGLSLSYALQITQTLNWIVRMTVEVETNIVSVERIKEYADLKSEAPLIVEGHRPPKEWPSQGDIKFNNYSTRYRPELDLVLKHINIHIKPNEKVGIVGRTGAGKSSLTLALFRMIEASEGNIVIDNIAINEIGLYDLRHKLSIIPQDSQVFEGTVRENIDPINQYTDEAIWRALELSHLKEHVLSMSNDGLDAQLTEGGGNLSVGQRQLLCLARAMLVPSKILVLDEATAAVDVETDKVVQETIRTAFKDRTILTIAHRLNTIMDSDRIIVLDNGKVAEFDSPGQLLSDNKSLFYSLCMEAGLVNEN
Take B1: the binding result was “binds”.
